Experimental data as given in US20140363428A1 (Chugai, published 2014).

Legend:
soluble human FcRn [1] = biological target: T1, soluble human FcRn (human, UniProt P55899 24-297; P61769 21-119); experiment: SPR (Biacore), pH 7.0
T1 construct: Heterodimer of alpha chain and beta2-microglobulin; also called hFcRn

soluble human FcRn [2] = biological target: T1, soluble human FcRn; experiment: SPR (Biacore), pH 7.0, 25 C;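 also: antibodies captured on a protein L-coated CM4 chip with human FcRn injected as analyte, KD obtained from ka and kd fitted to sensorgrams, in sodium phosphate buffer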
Description: An appropriate amount of protein L (ACTIGEN) was immobilized onto Sensor chip CM4 (GE Healthcare) by the amino coupling method, and the chip was allowed to capture an antibody of interest. Then, diluted FcRn solutions and running buffer (as a reference solution) were injected to allow human FcRn to interact with the antibody captured on the sensor chip. The running buffer used comprised 50 mmol/l sodium phosphate, 150 mmol/l NaCl, and 0.05% (w/v) Tween20 (pH 7.0). FcRn was diluted using each buffer. The chip was regenerated using 10 mmol/l glycine-HCl (pH 1.5). Assays were carried out exclusively at 25 degrees C. The association rate constant ka (1/Ms) and dissociation rate constant kd (1/s), both of which are kinetic parameters, were calculated based on the sensorgrams obtained in the assays, and KD (M) of each antibody for human FcRn was determined from these values. Each parameter was calculated using Biacore T100 Evaluation Software (GE Healthcare).

soluble human FcRn [3] = biological target: T1, soluble human FcRn; experiment: SPR (Biacore), pH 7.0; remark: listed apart in the source

| Kd (soluble human FcRn [1]) [nM] | Kd (soluble human FcRn [2]) [nM] | Kd (soluble human FcRn [3]) [nM] | Binder |
| --- | --- | --- | --- |
| 150 | 150 | – | IgG1-F1419 (antibody) heavy: QVQLQESGPGLVKPSETLSLTCAVSGHSISHDHAWSWVRQPPGEGLEWIGFISYSGITNYNPSLQGRVTISRDNSKNTLYLQMNSLRAEDTAVYYCARSLARTTAMDYWGEGTLVTVSSASTKGPSVFPLAPSSKSTSGGTAALGCLVKDYFPEPVTVSWNSGALTSGVHTFPAVLQSSGLYSLSSVVTVPSSSLGTQTYICNVNHKPSNTKVDKKVEPKSCDKTHTCPPCPAPELRGGPKVFLFPPKPKDTLYISRTPEVTCVVVDVSHEDPEVKFNWYVDGVEVHNAKTKPREEQYNSTYRVVSVLTVLHQDWLNGKEYKCKVSNKALPAPIEKTISKAKGQPREPQVYTLPPSRDELTKNQVSLTCLVKGFYPSDIAVEWESNGQPENNYKTTPPVLDSDGSFFLYSKLTVDKSRWQQGNVFSCSVMHEALDWHVTRKELSLSP light: not shown |
| – | – | 120 | Fv-4-F1062 (antibody, human IgG1, kappa) heavy: QVQLQESGPGLVKPSETLSLTCAVSGHSISHDHAWSWVRQPPGEGLEWIGFISYSGITNYNPSLQGRVTISRDNSKNTLYLQMNSLRAEDTAVYYCARSLARTTAMDYWGEGTLVTVSSASTKGPSVFPLAPSSKSTSGGTAALGCLVKDYFPEPVTVSWNSGALTSGVHTFPAVLQSSGLYSLSSVVTVPSSSLGTQTYICNVNHKPSNTKVDKKVEPKSCDKTHTCPPCPAPELLGGPSVFLFPPKPKDTLYISRTPEVTCVVVDVSHEDPEVKFNWYVDGVEVHNAKTKPREEQYNSTYRVVSVLTVLHQDWLNGKEYKCKVSNKALPAPIEKTISKAKGQPREPQVYTLPPSRDELTKNQVSLTCLVKGFYPSDIAVEWESNGQRENNYKTTPPVLDSDGSFFLYSKLTVDKSRWQQGNVFSCSVMHEALHYHVTQKSLSLSP light: DIQMTQSPSSLSASVGDSVTITCQASTDISSHLNWYQQKPGKAPELLIYYGSHLLSGVPSRFSGSGSGTDFTFTISSLEAEDAATYYCGQGNRLPYTFGQGTKVEIERTVAAPSVFIFPPSDEQLKSGTASVVCLLNNFYPREAKVQWKVDNALQSGNSQESVTEQDSKDSTYSLSSTLTLSKADYEKHKVYACEVTHQGLSSPVTKSFNRGEC |
| – | – | 120 | Fv-4-F1061 (antibody, human IgG1, kappa) heavy: QVQLQESGPGLVKPSETLSLTCAVSGHSISHDHAWSWVRQPPGEGLEWIGFISYSGITNYNPSLQGRVTISRDNSKNTLYLQMNSLRAEDTAVYYCARSLARTTAMDYWGEGTLVTVSSASTKGPSVFPLAPSSKSTSGGTAALGCLVKDYFPEPVTVSWNSGALTSGVHTFPAVLQSSGLYSLSSVVTVPSSSLGTQTYICNVNHKPSNTKVDKKVEPKSCDKTHTCPPCPAPELLGGPSVFLFPPKPKDTLYISRTPEVTCVVVDVSHEDPEVKFNWYVDGVEVHNAKTKPREEQYNSTYRVVSVLTVLHQDWLNGKEYKCKVSNKALPAPIEKTISKAKGQPREPQVYTLPPSRDELTKNQVSLTCLVKGFYPSDIAVEWESNGQEENNYKTTPPVLDSDGSFFLYSKLTVDKSRWQQGNVFSCSVMHEALHYHVTQKSLSLSP light: DIQMTQSPSSLSASVGDSVTITCQASTDISSHLNWYQQKPGKAPELLIYYGSHLLSGVPSRFSGSGSGTDFTFTISSLEAEDAATYYCGQGNRLPYTFGQGTKVEIERTVAAPSVFIFPPSDEQLKSGTASVVCLLNNFYPREAKVQWKVDNALQSGNSQESVTEQDSKDSTYSLSSTLTLSKADYEKHKVYACEVTHQGLSSPVTKSFNRGEC |
| – | – | 140 | Fv-4-F1060 (antibody, human IgG1, kappa) heavy: QVQLQESGPGLVKPSETLSLTCAVSGHSISHDHAWSWVRQPPGEGLEWIGFISYSGITNYNPSLQGRVTISRDNSKNTLYLQMNSLRAEDTAVYYCARSLARTTAMDYWGEGTLVTVSSASTKGPSVFPLAPSSKSTSGGTAALGCLVKDYFPEPVTVSWNSGALTSGVHTFPAVLQSSGLYSLSSVVTVPSSSLGTQTYICNVNHKPSNTKVDKKVEPKSCDKTHTCPPCPAPELLGGPSVFLFPPKPKDTLYISRTPEVTCVVVDVSHEDPEVKFNWYVDGVEVHNAKTKPREEQYNSTYRVVSVLTVLHQDWLNGKEYKCKVSNKALPAPIEKTISKAKGQPREPQVYTLPPSRDELTKNQVSLTCLVKGFYPSDIAVEWESNGSPENNYKTTPPVLDSDGSFFLYSKLTVDKSRWQQGNVFSCSVMHEALHYHVTQKSLSLSP light: DIQMTQSPSSLSASVGDSVTITCQASTDISSHLNWYQQKPGKAPELLIYYGSHLLSGVPSRFSGSGSGTDFTFTISSLEAEDAATYYCGQGNRLPYTFGQGTKVEIERTVAAPSVFIFPPSDEQLKSGTASVVCLLNNFYPREAKVQWKVDNALQSGNSQESVTEQDSKDSTYSLSSTLTLSKADYEKHKVYACEVTHQGLSSPVTKSFNRGEC |
| 130 | 130 | – | IgG1-F1420 (antibody) heavy: QVQLQESGPGLVKPSETLSLTCAVSGHSISHDHAWSWVRQPPGEGLEWIGFISYSGITNYNPSLQGRVTISRDNSKNTLYLQMNSLRAEDTAVYYCARSLARTTAMDYWGEGTLVTVSSASTKGPSVFPLAPSSKSTSGGTAALGCLVKDYFPEPVTVSWNSGALTSGVHTFPAVLQSSGLYSLSSVVTVPSSSLGTQTYICNVNHKPSNTKVDKKVEPKSCDKTHTCPPCPAPELRGGPKVFLFPPKPKDTLYISRTPEVTCVVVDVSHEDPEVKFNWYVDGVEVHNAKTKPREEQYNSTYRVVSVLTVLHQDWLNGKEYKCKVSNKALPAPIEKTISKAKGQPREPQVYTLPPSRDELTKNQVSLTCLVKGFYPSDIAVEWESNGQPENNYKTTPPVLDSDGSFFLYSKLTVDKSRWQQGNVFSCSVMHEALDWHVTKKELSLSP light: not shown |
| – | – | 140 | Fv-4-F1059 (antibody, human IgG1, kappa) heavy: QVQLQESGPGLVKPSETLSLTCAVSGHSISHDHAWSWVRQPPGEGLEWIGFISYSGITNYNPSLQGRVTISRDNSKNTLYLQMNSLRAEDTAVYYCARSLARTTAMDYWGEGTLVTVSSASTKGPSVFPLAPSSKSTSGGTAALGCLVKDYFPEPVTVSWNSGALTSGVHTFPAVLQSSGLYSLSSVVTVPSSSLGTQTYICNVNHKPSNTKVDKKVEPKSCDKTHTCPPCPAPELLGGPSVFLFPPKPKDTLYISRTPEVTCVVVDVSHEDPEVKFNWYVDGVEVHNAKTKPREEQYNSTYRVVSVLTVLHQDWLNGKEYKCKVSNKALPAPIEKTISKAKGQPREPQVYTLPPSRDELTKNQVSLTCLVKGFYPSDIAVEWESNGRPENNYKTTPPVLDSDGSFFLYSKLTVDKSRWQQGNVFSCSVMHEALHYHVTQKSLSLSP light: DIQMTQSPSSLSASVGDSVTITCQASTDISSHLNWYQQKPGKAPELLIYYGSHLLSGVPSRFSGSGSGTDFTFTISSLEAEDAATYYCGQGNRLPYTFGQGTKVEIERTVAAPSVFIFPPSDEQLKSGTASVVCLLNNFYPREAKVQWKVDNALQSGNSQESVTEQDSKDSTYSLSSTLTLSKADYEKHKVYACEVTHQGLSSPVTKSFNRGEC |
| – | – | 140 | Fv-4-F1063 (antibody, human IgG1, kappa) heavy: QVQLQESGPGLVKPSETLSLTCAVSGHSISHDHAWSWVRQPPGEGLEWIGFISYSGITNYNPSLQGRVTISRDNSKNTLYLQMNSLRAEDTAVYYCARSLARTTAMDYWGEGTLVTVSSASTKGPSVFPLAPSSKSTSGGTAALGCLVKDYFPEPVTVSWNSGALTSGVHTFPAVLQSSGLYSLSSVVTVPSSSLGTQTYICNVNHKPSNTKVDKKVEPKSCDKTHTCPPCPAPELLGGPSVFLFPPKPKDTLYISRTPEVTCVVVDVSHEDPEVKFNWYVDGVEVHNAKTKPREEQYNSTYRVVSVLTVLHQDWLNGKEYKCKVSNKALPAPIEKTISKAKGQPREPQVYTLPPSRDELTKNQVSLTCLVKGFYPSDIAVEWESNGQSENNYKTTPPVLDSDGSFFLYSKLTVDKSRWQQGNVFSCSVMHEALHYHVTQKSLSLSP light: DIQMTQSPSSLSASVGDSVTITCQASTDISSHLNWYQQKPGKAPELLIYYGSHLLSGVPSRFSGSGSGTDFTFTISSLEAEDAATYYCGQGNRLPYTFGQGTKVEIERTVAAPSVFIFPPSDEQLKSGTASVVCLLNNFYPREAKVQWKVDNALQSGNSQESVTEQDSKDSTYSLSSTLTLSKADYEKHKVYACEVTHQGLSSPVTKSFNRGEC |
| – | – | 11.1 | Fv-4-F947 (antibody, human IgG1, kappa) heavy: QVQLQESGPGLVKPSETLSLTCAVSGHSISHDHAWSWVRQPPGEGLEWIGFISYSGITNYNPSLQGRVTISRDNSKNTLYLQMNSLRAEDTAVYYCARSLARTTAMDYWGEGTLVTVSSASTKGPSVFPLAPSSKSTSGGTAALGCLVKDYFPEPVTVSWNSGALTSGVHTFPAVLQSSGLYSLSSVVTVPSSSLGTQTYICNVNHKPSNTKVDKKVEPKSCDKTHTCPPCPAPELLGGPSVFLFPPKPKDVLYISRTPEVTCVVVDVSHEDPEVKFNWYVDGVEVHNAKTKPREEQYNSTYRVVSVLQPLHADWLNGKEYKCKVSNKALPAPIEKTISKAKGQPREPQVYTLPPSRDELTKNQVSLTCLVKGFYPSDIAVEWESNGQPENNYKTTPPVLDSDGSFFLYSKLTVDKSRWQQGNVFSCSVMHEALHYHVTQKSLSLSP light: DIQMTQSPSSLSASVGDSVTITCQASTDISSHLNWYQQKPGKAPELLIYYGSHLLSGVPSRFSGSGSGTDFTFTISSLEAEDAATYYCGQGNRLPYTFGQGTKVEIERTVAAPSVFIFPPSDEQLKSGTASVVCLLNNFYPREAKVQWKVDNALQSGNSQESVTEQDSKDSTYSLSSTLTLSKADYEKHKVYACEVTHQGLSSPVTKSFNRGEC |
| – | – | 130 | Fv-4-F1058 (antibody, human IgG1, kappa) heavy: QVQLQESGPGLVKPSETLSLTCAVSGHSISHDHAWSWVRQPPGEGLEWIGFISYSGITNYNPSLQGRVTISRDNSKNTLYLQMNSLRAEDTAVYYCARSLARTTAMDYWGEGTLVTVSSASTKGPSVFPLAPSSKSTSGGTAALGCLVKDYFPEPVTVSWNSGALTSGVHTFPAVLQSSGLYSLSSVVTVPSSSLGTQTYICNVNHKPSNTKVDKKVEPKSCDKTHTCPPCPAPELLGGPSVFLFPPKPKDTLYISRTPEVTCVVVDVSHEDPEVKFNWYVDGVEVHNAKTKPREEQYNSTYRVVSVLTVLHQDWLNGKEYKCKVSNKALPAPIEKTISKAKGQPREPQVYTLPPSRDELTKNQVSLTCLVKGFYPSDIAVEWESNGEPENNYKTTPPVLDSDGSFFLYSKLTVDKSRWQQGNVFSCSVMHEALHYHVTQKSLSLSP light: DIQMTQSPSSLSASVGDSVTITCQASTDISSHLNWYQQKPGKAPELLIYYGSHLLSGVPSRFSGSGSGTDFTFTISSLEAEDAATYYCGQGNRLPYTFGQGTKVEIERTVAAPSVFIFPPSDEQLKSGTASVVCLLNNFYPREAKVQWKVDNALQSGNSQESVTEQDSKDSTYSLSSTLTLSKADYEKHKVYACEVTHQGLSSPVTKSFNRGEC |
